Laboratory results taken from US20200283521A1.
Where two headings read alike, the source gives them in different places.

B1: h37M-IgG1-3M (antibody, V domains shown)
VH: QVQLVQSGAEVKKPGASVKLSCKASGYTFTDYYINWVRQAPGKGLEWIARIYPGSGNTYYNEKFKGRATLTADKSTSTAYMQLSSLRSEDTAVYFCARGVYYFDYWGQGTTVTVSS
VL: DIVMTQSPSSLSASVGDRVTITCKASQNVRTNVAWYQQKPGKAPKALIYSASYRYSGVPDRFTGSGSGTDFTLTISSLQPEDFADYFCQQYNSYPRTFGGGTKVEIK
B2: humanized h37M, human IgG1 (antibody, V domains shown)
VH: B1 VH
VL: B1 VL

Columns and labels:
[1] = target: cynomolgus monkey C-KIT-Fc (cynomolgus monkey); assay: HTRF epitope competition in solution; unlabelled h37M IgG1-3M titrated against terbium-labelled h37M IgG1 on cyno C-KIT-Fc
[2] = target: cynomolgus monkey C-KIT, full length, on CHO-K1 cells (cynomolgus monkey); assay: cell-based or functional assay
[3] = target: human C-KIT, full length, on cells (human) (UniProt P10721); assay: cell-based or functional assay
[4] = target: cynomolgus monkey C-KIT, full length, on CHO-K1 cells (cynomolgus monkey); assay: flow cytometry, C-KIT-transfected CHO-K1 cells, IgG1 format
[5] = target: cynomolgus monkey C-KIT-Fc (cynomolgus monkey); assay: HTRF competition vs Tb-h37M IgG1
[6] = target: cynomolgus monkey C-KIT-Fc (cynomolgus monkey); assay: direct titration ELISA on coated C-KIT-Fc, IgG1 format
[7] = target: cynomolgus monkey C-KIT-Fc (cynomolgus monkey); assay: direct ELISA at 1 µg/ml
[8] = target: cynomolgus monkey C-KIT-Fc (cynomolgus monkey); assay: HTRF competition vs Tb-h37M IgG1; remark: listed apart in the source
[9] = target: cynomolgus monkey C-KIT-Fc (cynomolgus monkey); assay: direct titration ELISA on coated C-KIT-Fc, IgG1 format; remark: listed apart in the source

Binder | IC50 (read off the curve) [1] | Cyno C-KIT CHO FabZAP IC50 (pM) [2] | Human C-KIT CHO FabZAP IC50 (pM) [3] | TF-1 FabZAP IC50 (pM) [3] | TF-1 proliferation IC50 [3] | EC50 (read off the curve) [4] | IC50 [5] | EC50 (read off the curve) [6] | OD450 nm [7] | IC50 [8] | EC50 (read off the curve) [9]
B1 | 0.02 µg/mL | 7.82 pM | 5.7 pM | 12.8 pM | 110 pM |  |  |  |  |  | 
B2 |  |  |  |  |  | 0.2 µg/mL | 0.035 µg/mL | 0.1 µg/mL | > 2 OD450 nm | 0.036 µg/mL | 0.2 µg/mL
